Measurements reported in patent EP2649983A1, “Compounds which inhibit neuronal exocytosis (II)” (Lipotec, S.A., priority 2012, dated 2013).
Non-standard residues stand in square brackets, D forms with d. *: point of attachment. Met(O2) = CS(=O)(=O)CC[C@H](N)C(=O)O; Palmitoyl = CCCCCCCCCCCCCCCC(=O)*; NHhexadecyl = CCCCCCCCCCCCCCCCN*; Met(O) = CS(=O)CC[C@H](N)C(=O)O; Myristoyl = CCCCCCCCCCCCCC(=O)*

What was measured:
[1] = target: SNARE complex (VAMP, syntaxin and SNAP-25 bound to GST) (UniProt P60880); test: competition ELISA: VAMP on plate, SNAP-25-GST + syntaxin, anti-GST detection; compound at 2.5 mM
Sequence of SNARE complex (VAMP, syntaxin and SNAP-25 bound to GST) (P60880 whole entry, one chain of several): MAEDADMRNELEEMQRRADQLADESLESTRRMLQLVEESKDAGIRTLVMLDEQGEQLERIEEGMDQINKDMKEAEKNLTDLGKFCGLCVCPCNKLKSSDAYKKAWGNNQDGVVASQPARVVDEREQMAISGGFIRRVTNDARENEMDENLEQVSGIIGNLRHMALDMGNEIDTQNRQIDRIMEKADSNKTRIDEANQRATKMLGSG

[2] = target: SNARE complex (VAMP, syntaxin and SNAP-25) (UniProt P60880); test: SDS-PAGE of SNARE complex: VAMP + syntaxin + compound, then SNAP-25; image analysis; compound at 1 mM
Sequence of SNARE complex (VAMP, syntaxin and SNAP-25) (P60880 whole entry, one chain of several): as above

[3] = target: SNARE complex (VAMP, syntaxin and SNAP-25) (UniProt P60880); test: SDS-PAGE of SNARE complex: VAMP + syntaxin + compound, then SNAP-25; image analysis; compound at 5 mM
[4] = target: SNARE complex (VAMP, syntaxin and SNAP-25 bound to GST) (UniProt P60880); test: competition ELISA: VAMP on plate, SNAP-25-GST + syntaxin, anti-GST detection; compound at 0.5 mM

Binder | % inhibition formation SNARE complex [1] | % inhibition formation SNARE complex [2] | % inhibition formation SNARE complex [3] | % inhibition formation SNARE complex [4]
Ac-DHFLNWM-NH2 [Ac-SEQ ID NO:34-NH2] | 85% | 14% | 59% | 27%
Ac-EHLKQWM-NH2 [Ac-SEQ ID NO:1-NH2] | 63% | 59% | 100% | 33%
Ac-DHLKKWM-NH2 [Ac-SEQ ID NO:22-NH2] | 72% |  |  | 18%
Ac-QHLKNWM-NH2 [Ac-SEQ ID NO:27-NH2] | 14% |  |  | 
Ac-NDLKDWM-NH2 [Ac-SEQ ID NO:23-NH2] | 60% |  |  | 10%
Ac-QHLKEWM-NH2 [Ac-SEQ ID NO:12-NH2] | 71% |  |  | 20%
Ac-NHLKNWM-NH2 [Ac-SEQ ID NO:31-NH2] | 59% |  |  | 26%
Ac-NHFLNWM-NH2 [Ac-SEQ ID NO:15-NH2] | 42% | 50% | 100% | 48%
Ac-EHFLQWM-NH2 [Ac-SEQ ID NO:30-NH2] | 71% |  |  | 24%
Ac-QHLHNVM-NH2 [Ac-SEQ ID NO:3-NH2] | 64% |  |  | 31%
Ac-QDFLHWM-NH2 [Ac-SEQ ID NO:2-NH2] | 64% | 37% | 80% | 26%
Ac-NHLKHWM-NH2 [Ac-SEQ ID NO:32-NH2] | 19% |  |  | 
Ac-RHFLQWM-NH2 [Ac-SEQ ID NO:13-NH2] | 20% |  |  | 
Ac-EHLKKWM-NH2 [Ac-SEQ ID NO:8-NH2] | 44% |  |  | 11%
Ac-EDLKRWM-NH2 [Ac-SEQ ID NO:14-NH2] | 67% | 83% | 100% | 43%
Ac-EHLKQWM-OH [Ac-SEQ ID NO:1-OH] | 59% |  |  | 29%
Ac-EDLKRWM-NHhexadecyl [Ac-SEQ ID NO:14-NH-(CH2)15-CH3] | 35% | 43% | 85% | 11%
Ac-DHFLDWM-NH2 [Ac-SEQ ID NO:25-NH2] | 71% | 83% | 100% | 40%
Ac-DHFQQRM-NH2 [Ac-SEQ ID NO:24-NH2] | 55% | 48% | 100% | 41%

The next lines start with the values.

% inhibition formation SNARE complex [1] | % inhibition formation SNARE complex [2] | % inhibition formation SNARE complex [3] | % inhibition formation SNARE complex [4] | Binder
51% |  |  | 19% | Palmitoyl-DHFLNWM-NH2 [Palm-SEQ ID NO:34-NH2]
64% | 40% | 91% | 16% | Ac-DHFLDW[Met(O)]-NH2 [Ac-SEQ ID NO:56-NH2]
47% | 26% | 72% | 21% | Palmitoyl-EHLKQWM-NH2 [Palm-SEQ ID NO:1-NH2]
26% | 44% | 89% | 8% | Ac-DHFLDW[Met(O2)]-NH2 [Ac-SEQ ID NO:61-NH2]
44% | 17% | 66% | 36% | Palmitoyl-DHFQQRM-NH2 [Palm-SEQ ID NO:24-NH2]
58% |  |  | 30% | H-EHLKQWM-NH2 [H-SEQ ID NO:1-NH2]
51% |  |  | 20% | Palmitoyl-QHLHNVM-NH2 [Palm-SEQ ID NO:3-NH2]
53% | 36% | 85% | 24% | Palmitoyl-DHFLDWM-NH2 [Palm-SEQ ID NO:25-NH2]
19% | 23% | 76% |  | Myristoyl-NHFLNWM-NH2 [Myr-SEQ ID NO:15-NH2]
42% | 41% | 93% | 18% | Palmitoyl-EDLKRWM-NH2 [Palm-SEQ ID NO:14-NH2]
21% | 22% | 74% | 18% | Palmitoyl-NHFLNWM-NH2 [Palm-SEQ ID NO:15-NH2]
